Results published in the DeepSol protein solubility set.

Test: soluble on expression in E. coli; label from the status in PepcDB or PDB records

| Sequence | soluble on expression in E. coli |
| --- | --- |
| MGSDKIHHHHHHMHPKSPLTMQQSSVFIDSEVLLDDRKFAEAMLLKKDKAGLSRADMVFVLRNLLRLKYYPVAVKFFYDEAEVEKFKAEHEYLVACNPFTFCHFCAESRQKGDVLFGERRTLGCSNARYLFGWKDYDENEIKSHMKYVKDREQAERFVKTKPRLPEGLLAFATAPLHKAKFEPDLVFIICDVLQSYHLYNDYAAAMDVHPIRPNFMMNSAACGGAVWSYVENTINIVPMCSGSYTAGKTEQGEINVFIPWAHFEKLVVRLLERTASQGGASFPRTGETYPGFDICKLCNFLLFRKPKEDE | not soluble |
| MVSRLSTGILDFDKLIQGGIPQGFFIALTGEPGTGKTIFSLHFIAKGLRDGDPCIYVTTEESRDSIIRQAKQFNWDFEEYIEKKLIIIDALMKEKEDQWSLVNLTPEELVNKVIEAKQKLGYGKARLVIDSVSALFLDKPAMARKISYYLKRVLNKWNFTIYATSQYAITTSQAFGFGVEHVADGIIRFRRMIRNGELHRYILIEKMRQTDHDKHVWEIDIVNGKGIVLKGRLEE | soluble |
| MNSQQEWEHAYSLAERMYNKQAPTKREELNPTERVICSRFETIFDYDPFKDEYTFRDQALLFSTPVQPKCRTVAEADLHELKENTAKLNIPMPSYINICPIYALLPFTVLVFNNSQHAHKSLSDDMERAAATFRNPHESEIVPGAMYIFKQKHGKAYRCIILSEDGDMNIPDAERKYLVAFIDNVQIVSVKQKTLFVSDQFSIKDYPCALHCARIVGISAIRKSYVSGMNQFILNFYDAKEKRKAGMFAFIYKLDKEEKKLVIDYPSLLGTPKTTSTEIRTAVGHQIVASKDPVSLTFEQLNKKEVPEFKYLNSTDDDSDVELDLIEHDTKSVNPVASSHPTSSSMDDCPYGRASIARAKDYQLRLPPHSQKGLSSSSLLGSSYPVSNSIKNDITKQSESNRADATNISFSSFESTKSDISPQNNQNVEETSTPTVPPNSTIQENEEDEIMSPASIIRAPSRLAGSLNKVSIERPNTPLPTSSKNSEHNMSEISTYEASSISSHHLVPQSPSVPKTNYTVPVVQRPLTAPEKFRDPFGGPGSSDILNTKMLCSEKNIVPSNKFGRQISPGKDDKNENYQYSRMETKPQTLFAPVLDENQRQSSSSNMMCQIPDISSVAQVGFL | not soluble |
| MGSDKIHHHHHHMQQFPRLARVGLGFRRELIPALKSGVPATIDFFEIAPENWIDLGGGAARDLLFFTERYPFVCHGLSLSIGGPAPLDEILLQKIRQFLDQHRVLLYTEHLSYCSDDGHLYDLLPIPFTEEAVKYVAERVRRTQDILERRIALENASFYVASPISDMSELDFIRAVLLEADCDLHLDVNNVYVNSINHDYDPVDFIRALPSDRIVYMHMAGHHKEAENLIIDTHGADVIDPVWSLLDQTYGMHGVAPTLLERDFNIPPLEQLMREVLHIALIQAQHADSGDASAT | not soluble |
| MTSLYLASGSPRRQELLAQLGVTFERIVTGIEEQRQPQESAQQYVVRLAREKARAGVAQTAKDLPVLGADTIVILNGEVLEKPRDAEHAAQMLRKLSGQTHQVMTAVALADSQHILDCLVVTDVTFRTLTDEDIAGYVASDEPLDKAGAYGIQGLGGCFVRKINGSYHAVVGLPLVETYELLSNFNALREKRDKHDG | soluble |
| MGSDKIHHHHHHMYRVFVFDLDGTLLNDNLEISEKDRRNIEKLSRKCYVVFASGRMLVSTLNVEKKYFKRTFPTIAYNGAIVYLPEEGVILNEKIPPEVAKDIIEYIKPLNVHWQAYIDDVLYSEKDNEEIKSYARHSNVDYRVEPNLSELVSKMGTTKLLLIDTPERLDELKEILSERFKDVVKVFKSFPTYLEIVPKNVDKGKALRFLRERMNWKKEEIVVFGDNENDLFMFEEAGLRVAMENAIEKVKEASDIVTLTNNDSGVSYVLERISTDCLDE | not soluble |
| MGSDKIHHHHHHMSQNVYQFIDLQRVDPPKKPLKIRKIEFVEIYEPFSEGQAKAQADRCLSCGNPYCEWKCPVHNYIPNWLKLANEGRIFEAAELSHQTNTLPEVCGRVCPQDRLCEGSCTLNDEFGAVTIGNIERYINDKAFEMGWRPDLSDVKPTGKTVAIIGAGPAGLACADVLTRNGVKAVVFDRHPEIGGLLTFGIPAFKLEKEVMTRRREIFTGMGIEFKLNTEVGRDVQLDDLLKEYDAVFLGVGTYQSMRGGLDNEDAPGVYDALPFLIANTKQIMGFGETADEPYVSMEGKRVVVLGGGDTAMDCVRTSVRQNAAHVICAYRRDEENMPGSKREVKNAREEGVEFQFNVQPLGVEVNANGKVCGVKMARTEMGQPDAKGRRRAEIVPGSEHVVPADAVVMAFGFRPHSMEWLAKHSVEMDSQGRIIAPEGSENAFQTSNPKIFAGGDIVRGSDLVVTAIAEGRKAADGILNYLEV | not soluble |
| MAHHHHHHMQTNVLERIRALEADIERCIDSIVQQDLFAASIENERHRILLDHFTLQQVGIVRSTAEKLLDVYLDEDDIVQVQNAPAESPDNIAAAVKEFEAKIADIREYHHIYRDLPPVKDELAVPSPRLLDDIFTVHERYGACFDMDAHYNRYSAFMVHTKTLAEGCVSASAEVKKELAPLSPSSVLKWSSMWPGRLDFFSFTKALPQLLLHEVEAHRKIVGFALYKPFVAELLAYLEGFYRRIHPLKPAALERLMAEVESDAEKYWASLVEVKAEVTSVAATTAAASTEDEQADVQDVEDERVEEREAGGAAGSSSKGQTAAPVRIAVGNKVACGLAIPPSLRQHVKKFSLWPLPLIEKLIEDVGQASGTSDGAVASTSKLPTSVADVKMVCLMEAKAAALLQSFLYTTLETTNTSLLRDYSRTLEELENDREVAEQEFLDSLEEVRKNSADTMEGTVAHAAEYNLKLALEDSKGSRRGRHGKASAPAPVAAAPAAPELPLEEEEEQLIGENGEPIPRWLAQLHQLDKMFRCDVCGGTIYKGPKVFREHFGAERHAEGLRRLGVMHHLKSYEGITSIRQVVEMREQLTGGESGFRKRLRDNTDNEEIQDARGHVVTAKEYLRLQQRRR | not soluble |
| MTSEQYSVKLTPDFDNPKWIGRHKHMFNFLDVNHNGRISLDEMVYKASDIVINNLGATPEQAKRHKDAVEAFFGGAGMKYGVETEWPEYIEGWKRLASEELKRYSKNQITLIRLWGDALFDIIDKDQNGAISLDEWKAYTKSDGIIQSSEDCEETFRVCDIDESGQLDVDEMTRQHLGFWYTMDPACEKLYGGAVP | soluble |
| AIAEAAVDWYDFWNYYYLGKYQAANDVCTTLLEPNQWPRSVLLAVIRLRLALRDLEGIRALRNLVNDTWTSSVIHELIETLQKNVPPIDDGERLRSVVFGDGSALDAVDEAGRLLAALALQRAGLYLDALETLPLSRCENDAESRACRICLWLHLNRLDRAQLEQQALEHWFERQLADGDQRAVGTLVQLSRATLAVASNDAEDVAIEAALRSCRDLAERYGPSTKLLNLTYLCLVRLGRTEASESTLQQAMNLDAQDPDTMANTAASAAKTSMMMMAFPEAATATQRPIEYLRKYAPWHPWIRAQDDFERKLRGLAT | soluble |
| MAKVLVLNASYEPLNITHWQRAVVLLLKDKAEALENNGKLIYANFPLPSVIRLRQYIKVPYKEIPLTRRNVLERDRHTCQYCNYKGEQLTLDHVIPRSRGGGDSWENLVTACVRCNIKKGNRTPREAQMSLNYTPRRPYSSLLFEIIKHTRNDRNHEWRKYVIGILEHHHHHH | not soluble |
| DPGERLYDLNMPAYVKFNYMAEREDELSLIKGTKVIVMEKCSDGWWRGSYNGQVGWFPSNYVTEEGDSPLGDHVG | soluble |
| MNVCFFPRLKEFILNQDWNDPKSQLQQCCLTLRTEGKEPDIPLYKTLQTVGPSHARTYTVAVYFKGERIGCGKGPSIQQAEMGAAMDALEKYNFPQMAHQKRFIERKYRQELKEMRWEREHQEREPEEAEDIKK | soluble |
| MGSDKIHHHHHHMMLNQYQIFTMVDNLSLLHHKNDPMNKNDLINTKSTLCPCGSKQLYSKCCEPYHLSHAVAERPEHLMRSRYSAFVLRQFHYLITTHHADYLHGLTEQQLAQGDVQWLGLQVLSSKQESDHGEVTFKAWFIEDKHIDAIYECSSFIKQDGCWFYTHGQQMQTPLPSRNDACICSSGKKFKLCCAKLMR | not soluble |
| MSLRTIPLLCFNDVYRVNQKYNPQPGAPEDNSPDRTITVSQFAELLLSERSKWADRQSEDQDDQEGPSKEGLVLFAGDVFNPSVESSVTRGSHMVPIMNALKVDYACVGNHDFDFGFPHLTKLVESTSFPWLLSNIVDTNTGRQPEPLKRFIVTERCGVKIGLIGLVEKDWIATIPSWPHNFRYRSMKDTALELSRELRDPNGEHQVDIIIALTHCRVPNDIRLAIELGAVADKPGVENEHGIDLIVGGHDHIYYIGKGATSWEGYAGRKDVPGTTEDHGVRLIKSGTDFRDLTSANLTVTPTPLGSIRRQLITSLTGKHLYVLPSSPSSPPFEELVKSLLSSVSEALTKPVCFTLTPFDARSEVVRTQESGLGNWIADVLMHAYAESIVQAKGKEGGLGEEFEGDADAAILCGGTLRGDSQYGPGKISLGDILEILPFEDPVVCIELDGKGIWNALESALSKWPAQEGRFPIVSGLAVKWDHTRPPGQRILSIHQIAQPKKDDDDWEDPADMVDFKEQEDGTTVVVKQKKLQLGEEVKNEEGGRMYKVITRDYMAQGYDGFEALKNRNFIVDDENGQIMSSILRSFLLGSSYIFRHKQLEEAAHSHLSRRTSEGHHHHHH | soluble |
| MVKPMHLFAVVDALEQAQQFQQVLASRDVSTELVQIEQLNARFLRHHPELALCVDLDGLWLSANGMKMQPDWQAEIPRLKRASLKSEMIARACQINEQPSLIDATAGLGHDSLLMAYLGAHVTLVERHPVLFTLLEDAKSKAENDPFLSKYMQRIHLIFQDAHYYLQQCNQDDRKVDVIYLDPMFPQRDQHHQVIKKQAQVKKQMQLLHLLLPEDGEMDLGDQLLPLAQQIASRVVVKRPKHAVFLNEQQPDHQWQGDACRFDAYFQISM | not soluble |
| MRWTKEELDRYHRQMILPQVGPEGQERLKRASVVVVGAGGLGVPVLQYLVAARVGRVGVVEMDRVEVSDLHRQVLYTTEDVGEPKALVAQKRLQALNPLVRVEAYPVRLTSENALEILRPYDLVVDASDNFPTRYLVNDAAVLLGKPLVFGAIYQFDGQGTVFHHPTLHGEMGPCYRCLFPKPPPPGAVPSCAEAGVFGVLPAVVGSLMAAEALKVLLGIGKPLAGHLLLYDALEAGFRKLTVRRNPRCPVCGDEPTQRELVDYEAFCGLG | soluble |
| MTVRDKREKMTATREEFADAQQEFAAYAADFAADIETKRDVSSLLDAIDALRAEIEETGDAFDAYNQEFAAEVSHLQTEIGEQREALREMRDIFDAYAETFESDVEAKQDVSDLLAAIEDLRAEMDTTHEAFDAYTNEFVTDVAALRDVSDLLAAIEELQLEFGAVQAEFDDYTDDFDADIERFRNAVAEQRDAVAEYREEFHGVEVQAMLNAIADFQQEIDDFRAEFETTEESFDAFARDFYGAEASDSGDALETEAEAPDAGVPEQPAEESVETENEEAELEVVETETDTEDTDTGSIKEVEEELIIEEEIDTEDTREAENAVEEDEETEADEDAPEGMIQCLVCGEYYQAITEPHLQTHDMTIQEYREEYGEDMPLRPDDKA | not soluble |
| SSASDGFKANLVFKEIEKKLEEEGEQFVKKIGGIFAFKVKDGPGGKEATWVVDVKNGKGSVLPNSDKKADCTITMADSDFLALMTGKMNPQSAFFQGKLKITGNMGLAMKLQNLQLQPGNAKL | soluble |
| MSLTQKPLTVVVGPPSAGKSTWVKAAAKASDLVIDLDILAPTVIGKPMWIADSRERSLVIRERNSLVAEYMRGKTAHPHCFLIDTAGSFKRRKFWLDRGADVVLLDTDKDICRARIRQCSARPESTRAGRLAAVDRWEEGHHHHHH | soluble |
| MAGRPKDPTINKKIYTEIQRLLETTHFRDITIDQISENTGISKATIYRRWKDKSSIIMSAFIEQSQYIAIHNQDNLYDDLFQFLVKIKDIYKTKLGSAVIEILISHQQMEARETFMTNYFNHNRKVLKEIVRKHIQEEEQDLFIDLIFSPIYFNILIKPETLDENYIKKMLNQVLRIYH | not soluble |
